From US20260348974 (published 2026)

Target: human beta-tryptase (human, UniProt Q15661)
Assay: BLI steady state

Chain of human beta-tryptase (Q15661 31-275): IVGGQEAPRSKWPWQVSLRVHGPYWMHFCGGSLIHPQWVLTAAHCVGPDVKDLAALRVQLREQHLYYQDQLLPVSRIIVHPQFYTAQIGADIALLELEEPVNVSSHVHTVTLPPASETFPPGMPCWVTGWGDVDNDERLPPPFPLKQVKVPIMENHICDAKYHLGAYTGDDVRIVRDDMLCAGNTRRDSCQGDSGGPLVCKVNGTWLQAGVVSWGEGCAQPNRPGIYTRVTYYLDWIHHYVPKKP

| Kd [nM] | Binder |
| --- | --- |
| 3.16 | E104.v1 6DS (LC.F116C.Q124C.HC.F126C.A141C) (antibody, V domains shown) VH: EVQLVESGPGCVKPSETLSLTCTVSRFSLIGYAITWIRQPPGKGLEWIGGISSAATTFYSSWAKSRVTISVDTSKNQFSLKLSSVTAADTAVYYCARDPRGYGAALDRLDLWGQGTCVTVSS VL: DIQMTQSPSSLSASVGDRVTITCQSIKSVYNNRLGWYQQKCGKAPKLLIYETSILTSGVPSRFSGSGSGTDFTLTISSLQCEDFATYYCAGGFDRSGDTTFGQGTKVEIKR |
| 1.63 | E104.v1 4DS (antibody, V domains shown) VH: EVQLVESGPGCVKPSETLSLTCTVSRFSLIGYAITWIRQPPGKGLEWIGGISSAATTFYSSWAKSRVTISVDTSKNQFSLKLSSVTAADTAVYYCARDPRGYGAALDRLDLWGQGTCVTVSS VL: DIQMTQSPSSLSASVGDRVTITCQSIKSVYNNRLGWYQQKCGKAPKLLIYETSILTSGVPSRFSGSGSGTDFTLTISSLQCEDFATYYCAGGFDRSGDTTFGQGTKVEIKR |
